Laboratory results reported in the RNAGym collection of RNA variant scans (doi:10.7554/elife.80360).

B1: HDV Ribozyme (parent)
chain: GGCCGGCAUGGUCCCAGCCUCCUCGCUGGCGCCGGCUGGGCAACAUUCCGAGGGGACCGUCCCCUCGGUAAUGGCGAAUGGGACCCA

Variants of: B1
Assay: self-cleavage, relative activity (ratio to wild type); higher = more cleavage; co-transcriptional

| Variant | self-cleavage |
| --- | --- |
| GGCCGGCAUGGUCCCAGCCUCCUCGCUGGCGCCGGCUGGGCAACAUUCCGAGGGGACCGCCCCCUCGGUAAUGGCGAAUGGGCCCCA [U60C A83C] | 0.443 |
| GGCCGGCAUGGUCCCAGCCUCCUCGCUGGCGCCGGCUGGGCAACAUUCCGAGGGGACCGACCCCUCGGUAAUGACGAAUGGGACCCA [U60A G74A] | 0.422 |
| GGCCGGCAUGGUCCCAGCCUCCUCGCUGGCGCCGGCUGGGCAACAUUCCGAGGGGACCGCCCACUCGGUAAUGGCGAAUGGGACCCA [U60C C63A] | 1.04 |
| GGCCGGCAUGGUCCCAGCCUCCUCGCUGGCGCCGGCUGGGCAACAUUCCGAGGGGACCCUCCCCUCGGUAAUGGAGAAUGGGACCCA [G59C C75A] | 0.219 |
| GGCCGGCAUGGUCCCAGCCUCCUCGCUGGCGCCGGCUGGGCAACAUUCCGAGGGGACCUUCCCCUCGGUAAUGGCGAAUGGGACCUA [G59U C86U] | 0.852 |
| GGCCGGCAUGGUCCCAGCCUCCUCGCUGGCGCCGGCUGGGCAACAUUCCGAGGGGACCGACCCCUGGGUAAUGGCGAAUGGGACCCA [U60A C66G] | 0.878 |
| GGCCGGCAUGGUCCCAGCCUCCUCGCUGGCGCCGGCUGGGCAACAUUCCGAGGGGACCGACCCCUAGGUAAUGGCGAAUGGGACCCA [U60A C66A] | 0.972 |
| GGCCGGCAUGGUCCCAGCCUCCUCGCUGGCGCCGGCUGGGCAACAUUCCGAGGGGACCGACCCCUUGGUAAUGGCGAAUGGGACCCA [U60A C66U] | 1.12 |
| GGCCGGCAUGGUCCCAGCCUCCUCGCUGGCGCCGGCUGGGCAACAUUCCGAGGGGACCCUCCCCGCGGUAAUGGCGAAUGGGACCCA [G59C U65G] | 0.95 |
| GGCCGGCAUGGUCCCAGCCUCCUCGCUGGCGCCGGCUGGGCAACAUUCCGAGGGGACCCUCCCCACGGUAAUGGCGAAUGGGACCCA [G59C U65A] | 1.17 |
| GGCCGGCAUGGUCCCAGCCUCCUCGCUGGCGCCGGCUGGGCAACAUUCCGAGGGGACCGCCCCCUCGGUGAUGGCGAAUGGGACCCA [U60C A70G] | 1.15 |
| GGCCGGCAUGGUCCCAGCCUCCUCGCUGGCGCCGGCUGGGCAACAUUCCGAGGGGACCUUCCCCCCGGUAAUGGCGAAUGGGACCCA [G59U U65C] | 1.15 |
| GGCCGGCAUGGUCCCAGCCUCCUCGCUGGCGCCGGCUGGGCAACAUUCCGAGGGGACCUUCCCCUCAGUAAUGGCGAAUGGGACCCA [G59U G67A] | 1.05 |
| GGCCGGCAUGGUCCCAGCCUCCUCGCUGGCGCCGGCUGGGCAACAUUCCGAGGGGACCUUCCCCUUGGUAAUGGCGAAUGGGACCCA [G59U C66U] | 0.875 |
| GGCCGGCAUGGUCCCAGCCUCCUCGCUGGCGCCGGCUGGGCAACAUUCCGAGGGGACCCUCCCCUCAGUAAUGGCGAAUGGGACCCA [G59C G67A] | 1.06 |
| GGCCGGCAUGGUCCCAGCCUCCUCGCUGGCGCCGGCUGGGCAACAUUCCGAGGGGACCCUCCCCUCUGUAAUGGCGAAUGGGACCCA [G59C G67U] | 1.09 |

| Variant | self-cleavage |
| --- | --- |
| GGCCGGCAUGGUCCCAGCCUCCUCGCUGGCGCCGGCUGGGCAACAUUCCGAGGGGACCUUCCCCUCGGUAAUAGCGAAUGGGACCCA [G59U G73A] | 0.644 |
| GGCCGGCAUGGUCCCAGCCUCCUCGCUGGCGCCGGCUGGGCAACAUUCCGAGGGGACCCUCCUCUCGGUAAUGGCGAAUGGGACCCA [G59C C63U] | 1.11 |
| GGCCGGCAUGGUCCCAGCCUCCUCGCUGGCGCCGGCUGGGCAACAUUCCGAGGGGACCGACCCCUCGGUGAUGGCGAAUGGGACCCA [U60A A70G] | 0.77 |
| GGCCGGCAUGGUCCCAGCCUCCUCGCUGGCGCCGGCUGGGCAACAUUCCGAGGGGACCGACCCCUCGGUCAUGGCGAAUGGGACCCA [U60A A70C] | 0.808 |
| GGCCGGCAUGGUCCCAGCCUCCUCGCUGGCGCCGGCUGGGCAACAUUCCGAGGGGACCGACCCCUCGGUAAUGGCGAAUGGGACCCC [U60A A87C] | 1 |
| GGCCGGCAUGGUCCCAGCCUCCUCGCUGGCGCCGGCUGGGCAACAUUCCGAGGGGACCUUCCCCUCGGUAAUGGCCAAUGGGACCCA [G59U G76C] | 1.08 |
| GGCCGGCAUGGUCCCAGCCUCCUCGCUGGCGCCGGCUGGGCAACAUUCCGAGGGGACCUUCCCAUCGGUAAUGGCGAAUGGGACCCA [G59U C64A] | 0.899 |
| GGCCGGCAUGGUCCCAGCCUCCUCGCUGGCGCCGGCUGGGCAACAUUCCGAGGGGACCCUCCCCUCGGUAAUGGCGAAUGGUACCCA [G59C G82U] | 0.489 |
| GGCCGGCAUGGUCCCAGCCUCCUCGCUGGCGCCGGCUGGGCAACAUUCCGAGGGGACCGACCCUUCGGUAAUGGCGAAUGGGACCCA [U60A C64U] | 1.13 |
| GGCCGGCAUGGUCCCAGCCUCCUCGCUGGCGCCGGCUGGGCAACAUUCCGAGGGGACCGACCCCUCGGUAAUGGCGAAUGGGACUCA [U60A C85U] | 0.912 |
| GGCCGGCAUGGUCCCAGCCUCCUCGCUGGCGCCGGCUGGGCAACAUUCCGAGGGGACCGACCCCUCGGUAAUGGCGAAUGGGACGCA [U60A C85G] | 0.673 |
| GGCCGGCAUGGUCCCAGCCUCCUCGCUGGCGCCGGCUGGGCAACAUUCCGAGGGGACCUUCCCCUCGGUAAAGGCGAAUGGGACCCA [G59U U72A] | 0.665 |
| GGCCGGCAUGGUCCCAGCCUCCUCGCUGGCGCCGGCUGGGCAACAUUCCGAGGGGACCCCCCCCUCGGUAAUGGCGAAUGGGACCCA [G59C U60C] | 0.937 |
| GGCCGGCAUGGUCCCAGCCUCCUCGCUGGCGCCGGCUGGGCAACAUUCCGAGGGGACCCUCCCCUCGGUAAUGGCGAAUCGGACCCA [G59C G80C] | 0.222 |
| GGCCGGCAUGGUCCCAGCCUCCUCGCUGGCGCCGGCUGGGCAACAUUCCGAGGGGACCCUCCCCUCGCUAAUGGCGAAUGGGACCCA [G59C G68C] | 1.11 |
| GGCCGGCAUGGUCCCAGCCUCCUCGCUGGCGCCGGCUGGGCAACAUUCCGAGGGGACCGCCCCCUCGGUAAUGGCGAAUGGGACCCC [U60C A87C] | 1.05 |
